Assay results published in patent US12648942B2, “Method for treating acute ischemic stroke” (Lumosa Therapeutics Co., LTD, priority 2021, dated 2026).
Where two headings read alike, the source gives them in different places.

Legend:
[1] = Study 101: pharmacokinetics of single doses in healthy subjects; assay type: in vivo, human
From the text: The primary objective of this Phase 1, double-blind, randomized, placebo-controlled study was to determine the safety, tolerability, and pharmacokinetics of single ascending doses of DC009 drug product administered by 15-minute IV infusion in healthy subjects. The secondary objectives were to characterize the pharmacodynamics of single-ascending doses, explore the pharmacokinetic-pharmacodynamic relationships of single-ascending doses, and to determine the RP2D of the DC009 drug product.
The subject population was healthy adult male and female subjects between the ages of 18 and 65 years. Sixteen healthy subjects completed the study. All subjects received a single dose of DC009 drug product or placebo administered via a 15-minute IV infusion.
Cohort 1 (8 subjects) was administered 0.05 mg/kg DC009 drug product or placebo, and Cohort 0 (8 subjects) was administered 0.025 mg/kg DC009 drug product or placebo.
Primary Endpoints: • Nature and severity of adverse events (AEs) and number of subjects with AEs • Changes from baseline in vital signs, electrocardiogram (ECG) results, laboratory abnormalities, plasmin-antiplasmin complex, euglobulin clot lysis time, platelet aggregation, and physical examination findings • Pharmacokinetic parameters: maximum plasma concentration (Cmax), time to reach the observed maximum (peak) concentration (Tmax), area under the plasma concentration-time curve from time zero to the time of the last quantifiable concentration (AUC0-t), elimination half-life (T1/2), total body clearance of the drug from plasma (CL), and volume of distribution Secondary Endpoints • Pharmacodynamic effects of DC009 drug product on blood pressure, thrombin time (TT), prothrombin time (PT), euglobulin clot lysis time, and activated partial thromboplastin time (aPTT) up to 48 hours after dosing • Relationship between DC009 plasma concentrations and the selected PD and safety parameters • RP2D (recommended phase II dose) Results
The pharmacokinetic parameters of DC009 drug product were assessed included maximum plasma concentration (Cmax), time to reach Cmax (Tmax), area under the plasma concentration-time curve from time zero to infinity (AUC0-∞), area under the plasma concentration-time curve from time zero to the time of the last quantifiable concentration (AUC0-t), elimination half-life (T1/2), total body clearance of the drug from plasma (CL), and volume of distribution at steady state (Vss). A single sample of blood was collected at the following time points for the quantification of DC009 in plasma: at predose, 5, 10, 15 (end of infusion), 20, 25, 30, and 45 minutes; and at 1, 2, 4, 6, 12, 18, and 24 hours after infusion was initiated.

[2] = tested on: patients with Acute Ischemic Stroke (AIS); assay: Study 201: Phase 2 single-dose study in patients with Acute Ischemic Stroke, efficacy (NIHSS, mRS); assay type: in vivo, human; conditions: Day 90
From the text: The objective of this Phase 2, double-blind, single-dose, randomized, placebo-controlled study is to evaluate the safety, tolerability, and potential efficacy of DC009 drug product in patients with Acute Ischemic Stroke (AIS). The safety and potential efficacy outcomes from this Phase 2 study will guide the design of future studies in patients with acute ischemic stroke. Eligible patients will be randomized 2:1 to receive DC009 drug product or placebo via a 15-minute IV infusion to obtain a total of approximately 24 evaluable patients. Eligible patients will receive a single 0.025 mg/kg dose of DC009 drug product or placebo within 24 hours after the onset of stroke symptoms.
The key inclusion criteria are as follows: Subject a) are to be aged 18-90 years, inclusive, at the time of screening, b) have a NIHSS of 4-30, c) clinical diagnosis of AIS within 24 hours after stroke symptom onset.
Tissue plasminogen activator (alteplase) is the only approved drug treatment for stroke in the US and, per the labeling, must be administered within 3 hours of stroke symptom onset. The approved window of administration in other countries varies. Because there is no approved drug treatment for acute ischemic stroke for administration beyond 3 hours of stroke symptom onset in the US, a placebo-controlled study would be ethically acceptable and is necessary in order to evaluate the drug effect objectively. Preliminary efficacy will be evaluated by assessing the infarct volume, occurrence of recurrent stroke, neurological outcome measured by NIHSS and functional independence measured by Modified Rankin Scale (mRS).
• The occurrence of symptomatic intracranial hemorrhage (sICH) within 36 hours after dosing, clinical deterioration defined as an increase in the NIHSS of 4 points or more and confirmed by computed tomography or magnetic resonance imaging. Secondary Endpoint: • The occurrence of symptomatic intracranial hemorrhage (sICH) and asymptomatic intracranial hemorrhage (aICH) within 7 days after dosing • The occurrence of mortality due to intracerebral or other major bleeding complications within 24 hours, 7 days, 30 days, and 90 days after dosing. • Number and severity of AEs within 90 days after dosing • The occurrence of recurrent stroke within 90 days after dosing • Functional outcome such as mRS • Neurological outcome such as NIHSS at 30 days • The change of infarct volume in CT or MRI examination at 24 hours and 7 days • Plasma PK parameters of DC009 Results Baseline Characterization

[3] = Plasma pharmacokinetics after single IV bolus in Sprague Dawley rat; assay type: in vivo; conditions: for AUC(0-inf) / Cmax / AUC(0-t): male, Sprague-Dawley, rat, plasma, n=3; for AUC(0-t): read-out: AUClast, Mean (converted)
Experimental: The plasma pharmacokinetics of DC009 was studied in SD Rat following a single IV bolus administration of DC009. Male SD rats were dosed with DC009 at 0.001, 0.01, 0.1, 1 and 10 mg/kg by intravenous bolus injection with a dose volume of 1 mL/kg (n=3 per treatment group).

[4] = tested on: subjects with acute ischemic stroke (AIS); conditions: cited from earlier work
[5] = 0.025 mg/kg dose to the 0.05 mg/kg dose
[6] = 0.001 mg/kg IV bolus, some concentrations below LLOQ 5 ng/mL
[7] = 0.01 mg/kg IV bolus, some concentrations below LLOQ 5 ng/mL

CC(NC(=O)C1CCCN1)C(=O)NC(CCCCN)C(=O)NCCCCC(NC(=O)C1Cc2cc(O)c(O)cc2C(C)(C)N1)C(=O)O (stereo not drawn) [DC009, 3S-6,7-dihydroxy-1,1-dimethyl-1,2,3,4-tetrahydro-isoquinoline-3-acyl-Lys(Pro-Ala-Lys)]
dose-normalized geometric mean ratio for AUC0-inf [1, 5]: 1.40
dose-normalized geometric mean ratio for Cmax [1, 5]: 1.46
time measurable in plasma samples after the start of the infusion ([1]; 0.025 and 0.05 mg/kg, single 15-minute IV infusion): only measurable within the first half-hour
dose proportionality of exposure ([1]; 0.025 vs 0.05 mg/kg): approximately dose proportional
Cmax ([1]; Cohort 1, 0.05 mg/kg, single 15-minute IV infusion, individual subjects): 120 ng/mL
Cmax ([1]; both sexes, human, plasma, iv, 0.025 mg/kg, Cohort 0, 0.025 mg/kg, single 15-minute IV infusion, Mean ± SEM, read-out: Cmax): < 110 ng/mL
Cmax ([1]; both sexes, human, plasma, iv, 0.05 mg/kg, Cohort 1, 0.05 mg/kg, single 15-minute IV infusion, Mean ± SEM, read-out: Cmax): < 110 ng/mL
Cmax ([1]; both sexes, human, plasma, iv, 0.05 mg/kg, Cohort 1, 0.05 mg/kg, single 15-minute IV infusion, individual subjects, read-out: Cmax): 152 ng/mL
half-life ([1]; both sexes, human, plasma, iv, 0.025 and 0.05 mg/kg, single 15-minute IV infusion, read-out: T1/2, range): 3 to 4.2 min
half-life ([1]; both sexes, human, plasma, iv, 0.025 and 0.05 mg/kg, single 15-minute IV infusion, read-out: mean of T1/2 (converted)): 3.24 min
Tmax ([1]; both sexes, human, plasma, 0.025 and 0.05 mg/kg, single 15-minute IV infusion): 6 to 18 min
subjects with mRS of 0-1 ([2]; pre-dose 0%, 3 subjects): 21%
subjects with mRS Score 3 ([2]; pre-dose 6%): 29%
subjects with mRS Score 2 ([2]; pre-dose 13%): 29%
subjects with mRS Score 5 or 4 ([2]; pre-dose 81%): 21%
dose proportionality of Cmax and AUC0-∞ ([3]; dose of 0.1 to 10 mg/kg groups): approximately dose-proportional increases
AUC(0-inf) [3, 6]: 1.88 ng·h/mL
Cmax [3, 6]: 1.6 ng/mL
AUC(0-t) [3, 6]: 1.76 ng·h/mL
AUC(0-inf) [3, 7]: 4.04 ng·h/mL
Cmax [3, 7]: 6.1 ng/mL
AUC(0-t) [3, 7]: 3.35 ng·h/mL
AUC(0-inf) ([3]; 0.1 mg/kg IV bolus): 8.31 ng·h/mL
Cmax ([3]; 0.1 mg/kg IV bolus): 59.9 ng/mL
AUC(0-t) ([3]; 0.1 mg/kg IV bolus): 7.89 ng·h/mL
AUC(0-inf) ([3]; 1 mg/kg IV bolus): 53.2 ng·h/mL
Cmax ([3]; 1 mg/kg IV bolus): 426 ng/mL
AUC(0-t) ([3]; 1 mg/kg IV bolus): 52.8 ng·h/mL
AUC(0-inf) ([3]; 10 mg/kg IV bolus): 937 ng·h/mL
Cmax ([3]; 10 mg/kg IV bolus): 8120 ng/mL
AUC(0-t) ([3]; 10 mg/kg IV bolus): 936 ng·h/mL

rtPA: Alteplase (Activase), a recombinant tissue-type plasminogen activator (rtPA) [reference compound]
risk of symptomatic intracerebral hemorrhage [4]: ~5 fold
